Laboratory results taken from the nanobody polyreactivity screen of Harvey et al. (2022).

Experiment: yeast display, Sf9 membrane polyspecificity reagent, FACS + sequencing; frameworks hold sequencing errors
How it was run: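 Synthetic nanobody libraries on Saccharomyces cerevisiae BJ5465 were galactose-induced for 36–48 hours, stained 1 hour at 4 °C with 10% biotinylated, detergent-solubilized Sf9 membrane reagent and enriched on streptavidin microbeads. FACS then separated cells into low and high (top ~1%) gates by anti-HA (expression) and streptavidin (reagent binding) fluorescence. Genes were colony-PCR amplified, MiSeq 2 × 250 sequenced and CDR-length filtered. A clone's polyreactivity label is that of its gate of origin.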

Sequence | polyreactivity (PSR sort gate)
QVQLVESGGGLVQAGGSLRLSCAASGFTLGCYAMGWYRQAPGKERELVAAITRDGSSTYYADSVKGRFTISRDNAKNTVYLQMNRLKPEDTAVYYCAAERKKKYDYWGQGTQVTVSS | high polyreactivity
QVQLVESGGGLVQAGGSLRLSCAASGRIFIHNAMGWYRQAPGKERELVAAISSRGSRTSYADSVKGRFTISRDNAKNTVYLQMNSLKPEDTSVYYCNAAPIAKYDYWGQGTQVTVSS | high polyreactivity
HDQLVETGGGLVQAGGSLRLSCAASGRTYSKYAMGRYRQPPGKERELVAAITSGGGTYYADSVKGRFTISRDNAKNTVYVQMNSLSPEDSAVYYCAVSVTTVSTHDYWGQGTQVTVSS | low polyreactivity
QVQLVESGGGLVQAGGSLRLSCAASGSTFRGYAMGWYRQAPGKERELVATITSGGSTNYADSVKGRFTISRDNGKNTVYLQMNSLKPEDTAVYYCNARWVPRYWYDYWGQGTQVTVSS | high polyreactivity
QVQLVESGGGLVKAGGSLRLSCAASGSIITIYAMGWYRQAPGKERDWVATITGGGGSTYYADSVKGRFTISRDNAKNTVYFKMNSLKPEETAVYYCAADSPGWSYTSRSYDYWGQGTQVTVSS | low polyreactivity
QVQLVESCGGLVQAGGSHRLSCAASGRIFGVYVMGWYRQAPGKERELVAAISWSCSHTYYADSVKGRYTISRDNAKNTVYLQMNSLKPEDTAVYYCNADSYPDYTGPGLDWYDYWGHGTQVTVSS | low polyreactivity
QVQLVDSGGGLVQAGGSLRLSCAASGFIFPVYTMGWYRQAPGKERELVAAITQIGGSTQYADSVKGRFTISRDNAKNTVYLQMNSLKPEDTAVYYCAVDYDSYWYGTYVNEYVYWGQGTQVTVSS | low polyreactivity
QVQLVESGGGLVQAGGSLRLSCAASGLTFTRYDMGWYRQAPGKERELVASISQSGTSTHYADSVKGRFTISRDNAKNTVYLQMNSLKPEDTAVYYCAADYVSRYYVKWYRGFDYWGQGTQVTVSS | low polyreactivity
QVQLVESGGGLVQAGGSLRLSCAASGIIFGRYTMGWSRQAPGKERELVAAITSSGITYYADSVKGRFTISRDNAKNTVYLQMNSLKPEDTAVYYCIADYSSPGYYWPYDYWGQGTQVTVSS | low polyreactivity
QVQLVESGGGLVQAGGSLRLSCAASGRIFTPYAMGWYRQARGKEREVVAVIRDGSTYYADSVKGSFTISRDNAKNTVYLQMNSLKPEDTAVYYCRYDIWVWWSGAYDYWGQGTQVTVSS | low polyreactivity
QVQLVESGGGLVQAGGSLRLSCAASGSTFSGYMGWYRQAPGKERELVAAITSSGGSTYYADSVKGRFTISRDNAKNTVYLQMYSLKPEDTAVYYCAADGGYRGEDYWGQGTQVTVSS | high polyreactivity
QVQLVESVGGLVQAGGSLRLSCPASGSIFGPYAMGWYRQAPGKERELVAAMTIGGDNTYYADSVKGRFTISRDNAKNTVYLQMNSLKPEDTAVYYCAAKYYGGKPHYYEYYYWGQGTQVTVSS | low polyreactivity
QVQHVESGGGLVQAGGSLRLSCAASGFIFSWNAMGWYRQAPGKERELVAGISWSGGSTYYADSVKGRFTISRDNAKNTVYLQMNRLKPEDTAVYYCAKEPSVGTGGVYRYGRGDYWGQGTQVTVSS | low polyreactivity
QVQLVESGGGLVQAGGSLRLSCAASGFIFRRYVMGWYRQAPGKERELVAAISNGGGRTYYADSVKGRFTISRDNAKNTVYLQMNSQKPEDTAVYYCAAYPRGPLAPDYDYWGQGTQVSVSS | high polyreactivity
QVQLVESGGGLVQAGVRLRLSCPASGFIFDWYTMGWYRQAPGKERELVAAITIGGSTDYADSVKGRFTISRDNAKNTVYLQMNSLKPEDTAVYYCNALWYLSGTWYDYWGQGTQVTVSS | low polyreactivity
QVQLVESGGGLVQAGGSLRLSCAASGRIFGPYAMGWYRQAPGKERELVASISYSRGSTYYADSVKGRFTISRDNANNTVYLQMNSLKPEDTAVYYCAKGGYWRGYNYWGQGSQVTVSS | low polyreactivity
QDQLVESGGGLVQAGGSLRLSFAASVSTFTTYAKGWYRQAPGKERELVAAIDWSDGSITYYADSVKGRFTISRDNAKNTVYLQMNSLKPEDTAVYYCAKDNSQYGWGYDYWVQGTQVTVSS | low polyreactivity
QVQLVESGGGLVQAGGSLRLSCAASGRIFERYAMGRYRQAPGKERELVAAISVSGSGTYYADSVKGRFTISRDNAKNTVYLQINSLKPEDTAVYYCAADASLLGLYYYLFYLEVNYWGQGTQVTVSS | low polyreactivity
QVQLVESGGGLVQAGGSLRLSCAASGRIFVKYSMGWYRQAPGKERELVAAISKSGGSTYYADSVKGRFTISRDNAKNTVYLQMNSLKPEDTAVYYCATRSRDQYSVSYRLDYWGQGTQVTVSS | low polyreactivity
QVQLVESGGGLDQAGGSLRLSCAASVRIFEENAMGWSRQAPGKEREFVAVITSSGGGTYYADSVKGRFTISRDKAKNTVYLQMNSLKPEDTAVYYCARADKLHTRGWGRWGSGSYSWGQGTQVTVSS | low polyreactivity

Sequence | polyreactivity (PSR sort gate)
QVQLVESGGGLVQAGGSLRLSCAASGRIFPDNAMGWYRQARGKERELVAAMTYSGGSTSYADSVKGRFTISRDNAKNTVYLQMNSLKPEDTAVYYCNKGGGTSYDYVRVDKYPGDYWGQGTQVTVSS | low polyreactivity
QVQLVESGGGLVQAGGSLRLSCAASGSTFTQYAMGWYRQAPGKERELVAAINSRGDSTYYADSVKGRFTISRDNAKNTVYLQMNSLKPEDTAVYYCAATGYLSYYQQDLWLEYYYWGQGTQVTVSS | low polyreactivity
QVQLVESGGALVQAAGSLRLICAASVIISGCNGMGWYRQAPGKERELVASISDSGSSTYYADSVKGRFTISRDNAKNTVYLQMNSLKPEDTAVYYCATDLLASRYGYWGQGTQVTVSS | low polyreactivity
QVQLVESGGGLVQAGGSLRLSCAASGSIFYNNVMGWYRQAPGKERELVAVISGGGSTNYADSVKGRFTISRDNAKNTDYLQMNSLKPEDTAVYYCAARGRYSYGDRYEYWGQGTQVTVSS | low polyreactivity
QVQLVESGGGLVQAGGSLRLSCAASGSTFEWNAMGWYRQAPGKERELVAAISGTGGNTYYADSVKGRFTISRYNAKNTVYLQMNSLKPEDTAVYYCNTDYGEYSSWDLQWWYIPYDYWGQGTQVTVSS | low polyreactivity
QVQLVESGGGLVQAGGSLRLSCAASGSTFRYYDMGWYRQAPGKERELVAVISKSGARTYYADSVKGRFTISRDNAKNTVYLQMNSLKPEDTAVYYCIAVFKLDSQYAMGYWGQGTQLTVSS | high polyreactivity
QVQLQESGGGLVQAGGSLRLSCAVSGTIFFPQDKGWYRQAPGREREYGAAIAEGTSTYYADSVKGRFTISRDNAKNTVYPQMYSLKPEDTEVNYCAAYRSTPQQFLYWGQGTQVTVSS | high polyreactivity
QVKLVESGGGLVQAGGSLRLSCAASGSIFWSYAMGWYRQAPGKEREFVPSITGSGGTTTYADSVKGRFTISLDNAKNTVYVQMNSLKPEDTAVYYCNARLHGWYHVYYIYDYWGQGTQVTVSS | low polyreactivity
QVQLVESGGGLVQAGGSLRLSCAASGSTLGVYAMGWYRQAPGKERELVAAITIGGSTNFADSVKGRFTISRDNAKNTVYLQLNSLKPEDTAVYYCNAYYYWEGHGYTLLSYYYWGQGTQVTVSS | low polyreactivity
QVQLVESGGGLVQAGGSLRLTCAASGGIFSYNAMGWYRQAPGKERELVAAISDSSTRTYYADSVKGRFTISRDNAKNTVYLQIKSLKPEDTAVYYCAARHSRTRHTSDYWGQGTQVTVSS | high polyreactivity
QVQLVESVVGLDQAGGSLSLSCAASAIILYYYSMGWYRQAPGKEREVVAAISSGGNTYYADSVKGRFTISRDNAKNTVYFQMNSLKPEDTAVYYCAAGNVIGGEYDYWGLGTQVTVSS | low polyreactivity
QVQLVESGGGLVQAGGSLRLSCAASGFIFYRYVMGWYRQAPGKERELVAAITWSGGSTYYADSVKGRFTISRDNAKNTVYLQMNSLKPEDTAGNYCAAEWWLPSFGMDYWGQGTQVTVSS | low polyreactivity
QVQLVDSGGGLVQAVGSLRLSCAASGGIFVPNAMGWYRQAHGKVRELVAAIYYSGGRTYYADSVKGSFTISRDNAKNTVYLQMNRLKPEDTAVYYCAAEYWFVFHHYNYFGQGTQVTVSS | high polyreactivity
QVQLVESGGGLVQAGGSLLLSCAASGSTFSGYAMGWYRQAPRKESDLVASINWSGGSTYADSVKGRFTISRDNAKNTVYLQMNSLKPEDTAVYYCARRWRAYLYGGRDYWGQGTQVTVSS | low polyreactivity
QVQLVESGGGLVQAGGSLRLSCAASGFTFSPNAMGWSTQAPGQEREVVAAITSGGNTYADSVKGRFTISRDNAKNSVYFQMNSLKPDDNAVYYCAKGEGYWYIARYLPVGYGYWGQGTQVTVSS | low polyreactivity
QVQLVESGGGLVQAGGSLRLSCASSGFTFYSYDMGWYRQAPGKERELVAAITWYGGSTYYADSVKGRFTISRDNAKNTVYLQMKSLKQEDTAVYYCAAELFPLQHFWVAYATRRYDYWGQCTQVTVSS | low polyreactivity
QVQLVESGGGLVQAGGSLRISCAASGLYAMGWYRQAPGKERELVADINSSGGSITNYADSVKGRFTISRDNAKNTVYLQMNSLKPEDTAVYYCNPDVPGDTGWWGFDYWGQGTQVTVSS | low polyreactivity
QDQLVESGGGLVQAGGSLRLSCAASGITFSSNAMGGYRQAPGKERELVAAISRNGDRTYYADSVKGRFTISRDNAKNTVYLQMNSLKPEVTAVYYCATAYPGSRRDYWGQGTQVTVSS | high polyreactivity
QVQLVESGGGLVQAGGSLRLICAASGRIFYVYAMGWYRQAPGKERELVAAITSGGSTYYADSVKGRFTISRDNAKNTVYLQMNSLKPEDTAVYYCAAYNRGRFRPYRFEYWGQGTQVTVSS | high polyreactivity
QVQLVESGGGLVQAGGSLRFICAASGRTFDWYAMGWYRPAPGKERELVAGNSWSGGSTYYADSVKGRFTISRDNAKNTVYLQMNSLKPEDTAVYYCAAEYPFEIGYVYYYIDYDYWGQGTQVTVSS | low polyreactivity
